These results are taken from the nanobody polyreactivity screen of Harvey et al. (2022).

The nature of the data set: yeast display, Sf9 membrane polyspecificity reagent, FACS + sequencing; frameworks hold sequencing errors. The gist of the method: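 A synthetic nanobody library was expressed on Saccharomyces cerevisiae BJ5465 by galactose induction for 36–48 hours. The library was stained for 1 hour at 4 °C with 10% biotinylated, detergent-solubilized Sf9 membrane reagent and enriched with streptavidin microbeads before FACS. Low and high (top ~1%) gates were set on anti-HA fluorescence for expression and streptavidin fluorescence for reagent binding, and each polyreactivity label reflects the gate of origin.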
On to “QVQLVESGGVLVQAGGSLRLSCAASGSTFGLNAMGWYRQAPGKERELVAAITRSDITNYADSVKGRFTISRDNAKNTVYLQMNSLKPEDTAVYYCAARGLWPYDYWGQGTQVTVSS”, for which the “polyreactivity (PSR sort gate)” value is “low polyreactivity”.
On to “QVQLVESGGVLVQAGGSLRLSCAASGSTFHRSAMGWYRQAPGKERELVATINLNTGSTYADSVKGRFTISRDNAKNTVYLQMNSLKPEDTAVYYCAAYGRWPFTWYNYWGQGTQVTVSS”, for which the “polyreactivity (PSR sort gate)” value is “low polyreactivity”.
With “QVQLVESGGVLVQAGGSLRLSCAASGSTFSYYTMGWYRQAPGKERELVATISKRGGTTSYADSVKGRFTISRDNAKNTVYLQMNSLKPEDTAVYYCAARYSKVHYAYDYWGQGTQVTVSS”, the “polyreactivity (PSR sort gate)” value was “high polyreactivity”.
In the case of “QVQLVESGGVLVQAGGSLRLSCAASGSTFYNNAMGWYRQAPGKERALVATISSGGGSTYYADSVKGRFTISRDNEKNTVYLQMNSLKPEDTAVYYCAAYVLPYGEYDYWGQGTQVTVSS”, the “polyreactivity (PSR sort gate)” value is “low polyreactivity”.
For “QVQLVESGGVLVQAGGSLRLSCAASGSTLSPYVMGWYRQAPGKERELVATISRSGGRTYYADSVKGRFTISRDNAKNTVYLQMNSLKPEETAVYYCAARTYYWGALIVSYDYWGQGTQVTVSS”, the “polyreactivity (PSR sort gate)” value is “low polyreactivity”.
With “QVQLVESGGVLVQAGGSLRLSCAASGTFVVNDMGWYRQGPGKERELVAALSWSGGSTYYADSVKGRFTISRDNAKNTVYLQMTSLKPEDTAVYYCAADNWWVYPVWYENDYWGQGTQVTVSS”, the “polyreactivity (PSR sort gate)” value is given as “low polyreactivity”.
As to “QVQLVESGGVLVQAGGSLRLSCAASGTFYPNARGWYRQAPGKDRELVAALSEDGGGTYYADSVKGRFTISRDNAKNTVYLQMNSLKPEDTAVYYCAAEYYDYWYTFDYWGQGTQVTVSS”, the “polyreactivity (PSR sort gate)” value was “high polyreactivity”.
The result for “QVQLVESGGVLVQAGGSLRLSCAASGYIFEGNAMGWYRQAPGKERDFVAAITKRGGSTYYADSVKGRFTISRDNAKNTVYLQMNSLKPEDTAVYYCAADRSYPRAGRYDYWGQVTQVTVSS” reads “low polyreactivity”; that for “QVQLVESGGVLVQAGGSLRLSCAASRSIFQGYVMGWYRQAPGKERELVAAISYSGDSTYYADSVKGRFTNSRDNAKNTVSLQINSVKPEDTAVYYCNAYRNRYGYRTSSRRYGYWGQGTQVTVSS”, “high polyreactivity”.
On to “QVQLVESGGVLVQAGGSLRLSCAASRSTFTSYAMGWSRQAPGKERELVADISFSGGSTYYADSVKGRFTISRDIAKNSVYSQMNRLTPEDTAVYSCAARIYKRYYWGQGTQVTVSS”, for which the “polyreactivity (PSR sort gate)” value is listed as “high polyreactivity”.
On to “QVQLVESGGVLVQAGGSLRLSCAASVGIFDYYTMGWYRQAPGKERELVAAISASGGITYYADSVKGRFTISRDNANNTVYLQMNSMKPEDTAVYYCAAGVRNDYWWYYYWGQGTQVTVSS”, for which the “polyreactivity (PSR sort gate)” value is “high polyreactivity”.
Consider “QVQLVESGGVLVQAGGSLRLSCAAYGFSFNDYAMGWYRQAPGKERELVAAIDWSGGRTYYADSVKGRFTISRDNAKNTVYLQMNSLKPEDTAVYYCAAVLYSRLYWYRLDYWGQGTQVTVSS”, for which the “polyreactivity (PSR sort gate)” value is “low polyreactivity”.
“QVQLVESGGVLVQAGGSLRVSCAASGGIFPRYTMGWSRQAPGKERELVASITRSGASTYYADSVKGRFTISRDKAKNTVYLPINSQKPEDTWFYYVISDVYVYSVTSHYTSSRLDYWGQGTQVTVSS”: the “polyreactivity (PSR sort gate)” value is reported as “high polyreactivity”.
Consider “QVQLVESGGVLVQAGRSLRLSCAASGSPFRIYAMGWYRQAPGKERELVAAISSGGRTNYADSVKGRFTISRDNAKNTVYLQMNSLKPEDTAVYYCATVGYSSSTSGNRYGRAYYYWGQGTQVTVSS”, for which the “polyreactivity (PSR sort gate)” value was “high polyreactivity”.
“QVQLVESGGVLVQGGGSLRLSCAASGSIFPFYALGWYRQAPGKERELVATNSWSGGRTYYADSVKGRFTKSRDNAKTNVYLQINILIPEDTAVYYCAAGSYHYPNAYYYWGQGTQLTVSS”: the “polyreactivity (PSR sort gate)” value is “high polyreactivity”.
For the sequence “QVQLVESGIGLVQAGGSLRLSCAASGRTLGGNAMGWYRQAPGKERELVAAINWSGGITYYADSVKGRFTISRDNAKNTVYLQMNSLKPEDTAVYYCARYKYNRQTRVEYGYWGQGTLVTVSS”, the “polyreactivity (PSR sort gate)” value is reported as “high polyreactivity”.
Take “QVQLVESGRGLDQAGGSLRLICYASGRTFLYNAMGWFRQSPGKERELVAAIRWSGGTTYYADSVKGRFTISRDNSKNNVYLQMNSLKPEDTAIYYCAARWGQYYGGVRYGYWGQGTQVTVSS”: the “polyreactivity (PSR sort gate)” value was “high polyreactivity”.
“QVQLVESGRGLFHAGGSLRLSCAASGNTFGKYDMGWSIQAPGKERELVAAISKSSGSTYYADSVKGRFTISRDNAKNTVYFQMNSLKPEDTAVYYCAAEAYRYAWYDYWGQGTQVTVSS”: the “polyreactivity (PSR sort gate)” value is “high polyreactivity”.
In the case of “QVQLVESGRGLFQAGGSLRISCAASGSTYQFYAMGWYRQAPGIERELVASIRVRSGTTYYADSVKGRFTISRDNAKNTVYLQMNSLKPEDTAVYYCASGRPYYGRKYDYWGQGTQVTVSS” it was “high polyreactivity”.
Take “QVQLVESGRGLFQSGGSLRLSCAASGRTFVPYAMGWYRQAPGKESELVAAISYSGDSTYYADSVKGRFTISRDNAKNTVYLQMKSLIPEDTAVYYCAKRGPVRNTAYDYWGQGTQVTVSS”: the “polyreactivity (PSR sort gate)” value is reported as “low polyreactivity”.
With “QVQLVESGRGLVLAGGSLRLSCAASGRIFRYYAMGWYRQATGKERELVAGISWRGSSTYYADSVKGRFTISRDNAKNTVYLQMNSLKPEDTAVYYCNRDQSYIPVTGGRFYYWGQGTQVTVSS”, the “polyreactivity (PSR sort gate)” value was “high polyreactivity”.
In the case of “QVQLVESGRGLVQAGCSLRLSCPASGIIFTTYDMGWYRQAPGKERELVAAISSSTTNTYYADSVKWRFTISRDNAMNTVYLQMNSLKPEETAVYYCAAPYKSNAGFDYWGQGTQVTVSS” it was “low polyreactivity”; in that of “QVQLVESGRGLVQAGGRLRLSCAASGRTFSRNAMGRYRQAPGKERELVAAISFRGVSTYYADSEKGRFTISRDNAKNTVYLQLNSLKPEDTAVYYCARRYTSKGGYDYWGQGTQVTVSS”, “high polyreactivity”.
In the case of “QVQLVESGRGLVQAGGSLRISCAASGFTFSRYAMGWYRQAPGKERELVAAISLRGGRTYYADSVKGRFTISRDNAKNTVYLQMNSLKPEDTAVYYCNRDYRGPYYYWGQGTQVTVSS”, the “polyreactivity (PSR sort gate)” value is listed as “high polyreactivity”.
As for “QVQLVESGRGLVQAGGSLRISCAASGSTFYPNAMGWYRQAPGKEREFVAAISTSAGRTYYADSVKGRFTISRDNAKNTVYLQMNSLKPEDTAVYYCNARYWVYYVYEFDSWGQGTQVTVSS”, the “polyreactivity (PSR sort gate)” value is given as “low polyreactivity”.
As for “QVQLVESGRGLVQAGGSLRLISAASGSIFVHNTMGWYSQAPGKDRELVAAITYSGGSTNYADSVKGRFTISRDNAKNTVYLQMNSLKPEDTAVYYCATRAISQFHSLGYYYWGQGTEVTVSS”, the “polyreactivity (PSR sort gate)” value is “low polyreactivity”.
For “QVQLVESGRGLVQAGGSLRLRCAASGRNIRAYAMGCYRQAPGTERDLVAAITWSGGGTYYADSVKGRFTISRDNAKNTVYLQMTSLKPEDTAVYYCAAVTTLRPSWKRYYYWGQGTQVTVSS”, the “polyreactivity (PSR sort gate)” value is listed as “high polyreactivity”.
On to “QVQLVESGRGLVQAGGSLRLSCAASGFTFLLNAMGWYRQAPGKERELVAAITYSGGSTYYADSVKGRFTISRDNAKNTVYLQMNSLKPEDTAVYYCAKTSVTISEYEYWGQGTQVTVSS”, for which the “polyreactivity (PSR sort gate)” value was “low polyreactivity”.
“QVQLVESGRGLVQAGGSLRLSCAASGFTFRNYAMGWYRQAPGKERELVAAITRRGGSTYYADSVKGRFTISRDNAKNTVYLQMNSLKTEDTAVYYCNADREVPWGKDNLDYWGQGTQVTVSS”: the “polyreactivity (PSR sort gate)” value is recorded as “high polyreactivity”.
For the sequence “QVQLVESGRGLVQAGGSLRLSCAASGFTFRYYAMGWYRQAPGTERELVAAITYSGGGTYYADSVKGRFTISRDNANYTVYLQMNSLKPEDSAVYYCARRGRKAYAYWGQGTQVTVSS”, the “polyreactivity (PSR sort gate)” value is “high polyreactivity”.
Consider “QVQLVESGRGLVQAGGSLRLSCAASGGTFSPYAMGWYSQGPGKDRELVASITGSGGSTYYADSVKGRFTISRGNATTTVNLQMTSLNPEDTAVYYCAAQGYWTYWPYLLRLYDYWGQGTQVTVSS”, for which the “polyreactivity (PSR sort gate)” value is “low polyreactivity”.
For the sequence “QVQLVESGRGLVQAGGSLRLSCAASGLILGVNVMGWYRQAPGKERELVAAISGGGRTYYADSVKGRFTISRDNAKNTVYLQMNSLKPDDTAVYYCATVRRRLSLTYDYWGQVTQVTVSS”, the “polyreactivity (PSR sort gate)” value is on record as “high polyreactivity”.
For “QVQLVESGRGLVQAGGSLRLSCAASGRIFGIYAMGWHRQAPGKEMELVATITDGTITNYADSVKGRFTISRDNAKNTVYLQMNSLKPEDTAVYYCAAGTQAHAYVVRPIEMDYWGQGTQVTVSS”, the “polyreactivity (PSR sort gate)” value is recorded as “low polyreactivity”.
The result for “QVQLVESGRGLVQAGGSLRLSCAASGRIFGRNTIGWYRQAPRKEREMVAVISFRGGSTYADSVKGRFTISRDNAKNTVYLQMNSLKPEDTAVYYCARTAYSTRPYRFDYWGQGTQVTVSS” reads “high polyreactivity”.
As to “QVQLVESGRGLVQAGGSLRLSCAASGRIFPFYAMGWYRQAPGKERELVAAISSSGGSTYYADSVKGRFTISRDNAKNTVYLQMNSLKPEDTAVYYCAATRNSDGMGYWGQGTLVTVSS”, the “polyreactivity (PSR sort gate)” value is reported as “low polyreactivity”.
Take “QVQLVESGRGLVQAGGSLRLSCAASGRIFRSYAMGWYIPAPGKERELFAAISRSGGSTYYADSVKGRFTISRDNGKNTVYLQMNSLKPEDTAVYYCASRYSLGTNSKFFAYGYWGQGTQVNVSS”: the “polyreactivity (PSR sort gate)” value is “high polyreactivity”.
In the case of “QVQLVESGRGLVQAGGSLRLSCAASGRTFGYYAMGWYRKAPGKERELVAASTYSGARTYYADSVKGRFTISRDNAKNTVYLQRNSLKPEDTAVYYCAADTYYDDGYYYWCQGTQVTVSS”, the “polyreactivity (PSR sort gate)” value is listed as “high polyreactivity”.
For “QVQLVESGRGLVQAGGSLRLSCAASGRTFWYYAMGWYRQAPGKERELDARISSSGGSTYADSVKGRFTISRDNAKNTVYLHMNSLKPEDTAVYYCAADRHYWKADPSQGYQHYYWGQGTQVTVSS”, the “polyreactivity (PSR sort gate)” value is “high polyreactivity”.
In the case of “QVQLVESGRGLVQAGGSLRLSCAASGRTFYSNAMGWYRQAPGKERELVAGINWSGVSTYYADSVKGRFTISRDNAKNTVYLQMNSLKPEDTAVYYCAADTYAGYNGNYWGQGTQVTVSS” it was “high polyreactivity”; in that of “QVQLVESGRGLVQAGGSLRLSCAASGSICGYYTMGWYRQAPGKERELVAAITSGGSTNYADSVKGRFTISRDNAKNTVYLQMNSLKPEDTAVYYCAKVSYYPWRYDYWGQGTQVTVSS”, “low polyreactivity”; in that of “QVQLVESGRGLVQAGGSLRLSCAASGSIFEINAMGWYRQAPGIERELVAAITGSGGSTHYADSVKGRFTISRDNAKNTVSLQMNSLKPEDTAVYYCAAVPRYQYGYWGQGTQVTVSS”, “low polyreactivity”.
